Source: patent US10704030B2, “P450-BM3 variants with improved activity” (Codexis, Inc., priority 2015, dated 2020)
Where a chain is given by its changes, count along the chain named. Names and notes keep the numbering of the source.

B1: SEQ ID NO: 10: P450-BM3 parental backbone from the commercially available MCYP panel (MCYP-0343; Codexis) (protein)
chain: MTIKEMPQPKTFGELKNLPLLNTDKPVQALMKIADELGEIFKFEAPGCVTRYLSSQRLIKEACDESRFDKNLSQALKFARDFAGDGLATSWTHEINWKKAHNILLPSFSQQAMKGYHAMMVDIAVQLVQKWERLNADEHIEVSEDMTRLTLDTIGLCGFNYRFNSFYRDQPHPFIISMVRALDEVMNKLQRANPDDPAYDENKRQCQEDIKVMNDLVDKIIADRKARGEQSDDLLTQMLNGKDPETGEPLDDGNISYQIITFLIAGHETTSGLLSFALYFLVKNPHVLQKVAEEAARVLVDPVPSYKQVKQLKYVGMVLNEALRLWPTAPAFSLYAKEDTVLGGEYPLEKGDEVMVLIPQLHRDKTIWGDDVEEFRPERFENPSAIPQHAFKPFGNGQRACIGQQFALHEATLVLGMMLKHFDFEDHTNYELDIKETLTLKPEGFVVKAKSKKIPLGGIPSPSTEQSAKKVRKKAENAHNTPLLVLYGSNMGTAEGTARDLADIAMSKGFAPQVATLDSHAGNLPREGAVLIVTASYNGHPPDNAKQFVDWLDQASADEVKGVRYSVFGCGDKNWATTYQKVPAFIDETLAAKGAENIADRGEADASDDFEGTYEEWREHMWSDVAAYFNLDIENSEDNKSTLSLQFVDSAADMPLAKMHGAFSTNVVASKELQQPGSARSTRHLEIELPKEASYQEGDHLGVIPRNYEGIVNRVTARFGLDASQQIRLEAEEEKLAHLPLAKTVSVEELLQYVELQDPVTRTQLRAMAAKTVCPPHKVELEALLEKQAYKEQVLAKRLTMLELLEKYPACEMKFSEFIALLPSIRPRYYSISSSPRVDEKQASITVSVVSGEAWSGYGEYKGIASNYLAELQEGDTITCFISTPQSEFTLPKDPETPLIMVGPGTGVAPFRGFVQARKQLKEQGQSLGEAHLYFGCRSPHEDYLYQEELENAQSEGIITLHTAFSRMPNQPKTYVQHVMEQDGKKLIELLDQGAHFYICGDGSQMAPAVEATLMKSYADVHQVSEADARLWLQQLEEKGRYAKDVWAG
modifications: P450_BM3
B2: Variant 3: P450-BM3 variant of SEQ ID NO: 10: K32R; C48S; Y52F; I95P; L216Y; D232H; E349K; M491A; N574T; D722S (protein)
chain: B1 chain with K32R, C48S, Y52F, I95P, L216Y, D232H, E349K, M491A, N574T, D722S
modifications: P450_BM3
notes: C48S; Y52F; I95P; L216Y; D232H; E349K; M491A; N574T; D722S
B3: Variant 10: P450-BM3 variant of SEQ ID NO: 8: K32R; Y52F; K95P; Q111R; G115R; I176V; L216Y; D232H; P347T; E349T; M491A; T577A; E619D; D722S (protein)
chain: MTIKEMPQPKTFGELKNLPLLNTDKPVQALMRIADELGEIFKFEAPGRVTRFLSSQRLIKEACDESRFDKNLSQALKFARDFAGDGLFTSWTHEPNWKKAHNILLPSFSQRAMKRYHAMMVDIAVQLVQKWERLNADEYIEVPEDMTRLTLDTIGLCGFNYRFNSFYRDQPHPFIVSMIRALDEVMNKLQRANPDDPAYDENKRQFQEDIKVMNDYVDKIIADRKASGEQSHDLLTQMLNGKDPETGEPLDDGNISYQIITFLIAGHETTSGLLSFALYFLVKNPHVLQKVAEEATRVLVDPVPSYKQVKQLKYVGMVLNEALRLWPTAPAFSLYAKEDTVLGGEYTLTKGDEVMVLIPQLHRDKTIWGDDVEEFRPERFENPSAIPQHAFKPFGNGQRACIGQQFALHEATLVLGMMLKHFDFEDHTNYELDIKETLTLKPEGFVVKAKSKKIPLGGIPSPSTEQSAKKVRKKAENAHNTPLLVLYGSNAGTAEGTARDLADIAMSKGFAPQVATLDSHAGNLPREGAVLIVTASYNGHPPDNAKQFVDWLDQASADEVKGVRYSVFGCGDKNWAATYQKVPAFIDETLAAKGAENIADRGEADASDDFEGTYEEWRDHMWSDVAAYFNLDIENSEDNKSTLSLQFVDSAADMPLAKMHGAFSTNVVASKELQQPGSARSTRHLEIELPKEASYQEGDHLGVIPRNYEGIVNRVTARFGLSASQQIRLEAEEEKLAHLPLAKTVSVEELLQYVELQDPVTRTQLRAMAAKTVCPPHKVELEALLEKQAYKEQVLAKRLTMLELLEKYPACEMKFSEFIALLPSIRPRYYSISSSPRVDEKQASITVSVVSGEAWSGYGEYKGIASNYLAELQEGDTITCFISTPQSEFTLPKDPETPLIMVGPGTGVAPFRGFVQARKQLKEQGQSLGEAHLYFGCRSPHEDYLYQEELENAQSEGIITLHTAFSRMPNQPKTYVQHVMEQDGKKLIELLDQGAHFYICGDGSQMAPAVEATLMKSYADVHQVSEADARLWLQQLEEKGRYAKDVWAG
modifications: P450_BM3
notes: Y52F; K95P; Q111R; G115R; I176V; L216Y; D232H; P347T; E349T; M491A; T577A; E619D; D722S
B4: Variant 11: P450-BM3 variant of SEQ ID NO: 8: K95P; Q111R; G115R; I176V; L216Y; E349T; M491A; T577A; E619D; D722S (protein)
chain: B3 chain with R32K, F52Y, H232D, T347P
modifications: P450_BM3
notes: Q111R; G115R; I176V; L216Y; E349T; M491A; T577A; E619D; D722S
B5: Variant 4: P450-BM3 variant of SEQ ID NO: 10: K32R; C48S; Y52F; I95P; Q111R; L216Y; D232H; P347T; E349K; M491A; N574T; E619D; D722S (protein)
chain: MTIKEMPQPKTFGELKNLPLLNTDKPVQALMRIADELGEIFKFEAPGSVTRFLSSQRLIKEACDESRFDKNLSQALKFARDFAGDGLATSWTHEPNWKKAHNILLPSFSQRAMKGYHAMMVDIAVQLVQKWERLNADEHIEVSEDMTRLTLDTIGLCGFNYRFNSFYRDQPHPFIISMVRALDEVMNKLQRANPDDPAYDENKRQCQEDIKVMNDYVDKIIADRKARGEQSHDLLTQMLNGKDPETGEPLDDGNISYQIITFLIAGHETTSGLLSFALYFLVKNPHVLQKVAEEAARVLVDPVPSYKQVKQLKYVGMVLNEALRLWPTAPAFSLYAKEDTVLGGEYTLKKGDEVMVLIPQLHRDKTIWGDDVEEFRPERFENPSAIPQHAFKPFGNGQRACIGQQFALHEATLVLGMMLKHFDFEDHTNYELDIKETLTLKPEGFVVKAKSKKIPLGGIPSPSTEQSAKKVRKKAENAHNTPLLVLYGSNAGTAEGTARDLADIAMSKGFAPQVATLDSHAGNLPREGAVLIVTASYNGHPPDNAKQFVDWLDQASADEVKGVRYSVFGCGDKTWATTYQKVPAFIDETLAAKGAENIADRGEADASDDFEGTYEEWRDHMWSDVAAYFNLDIENSEDNKSTLSLQFVDSAADMPLAKMHGAFSTNVVASKELQQPGSARSTRHLEIELPKEASYQEGDHLGVIPRNYEGIVNRVTARFGLSASQQIRLEAEEEKLAHLPLAKTVSVEELLQYVELQDPVTRTQLRAMAAKTVCPPHKVELEALLEKQAYKEQVLAKRLTMLELLEKYPACEMKFSEFIALLPSIRPRYYSISSSPRVDEKQASITVSVVSGEAWSGYGEYKGIASNYLAELQEGDTITCFISTPQSEFTLPKDPETPLIMVGPGTGVAPFRGFVQARKQLKEQGQSLGEAHLYFGCRSPHEDYLYQEELENAQSEGIITLHTAFSRMPNQPKTYVQHVMEQDGKKLIELLDQGAHFYICGDGSQMAPAVEATLMKSYADVHQVSEADARLWLQQLEEKGRYAKDVWAG
modifications: P450_BM3
notes: C48S; Y52F; I95P; Q111R; L216Y; D232H; P347T; E349K; M491A; N574T; E619D; D722S
B6: Variant 5: P450-BM3 variant of SEQ ID NO: 10: C48S; I95P; G115R; L216Y; S231R; D232H; M491A; N574T; T577A; E619D; D722S (protein)
chain: B5 chain with R32K, F52Y, R111Q, G115R, S231R, T347P, K349E, T577A
modifications: P450_BM3
notes: I95P; G115R; L216Y; S231R; D232H; M491A; N574T; T577A; E619D; D722S

Assay: Validation of generalist properties: oxidation of imatinib by lyophilized P450-BM3 variant, UPLC-MS
Format: biochemical
Settings: [Imatinib] = 1 mM
Procedure, shortened: (§1)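 Lyophilized lysate of E. coli-expressed P450-BM3 variant (stock standardized to 12 μM heme) was incubated 24 h at 30 °C with 1 or 2 mM substrate, 1.0 mM NADP+, 25 mM glucose, 0.5 mg/mL glucose dehydrogenase and 5% DMSO in 100 mM potassium phosphate. Acetonitrile-quenched samples were analyzed by UPLC-MS (positive ESI).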

Molecule | % Conv.
B1 | ++ (5.01-10.00)
B2 | ++++ (15.01-20.00)
B3 | ++++ (15.01-20.00)
B4 | ++++ (15.01-20.00)
B5 | ++++ (15.01-20.00)
B6 | ++++ (15.01-20.00)

Same assay, conditions: [Imatinib] = 1 mM; TON = [substrate]*% conversion/[P450]

Molecule | TON
B1 | ‡‡ (1001-5000)
B2 | ‡‡‡‡ (10000-50000)
B3 | ‡‡‡‡ (10000-50000)
B4 | ‡‡‡‡ (10000-50000)
B5 | ‡‡‡‡ (10000-50000)
B6 | ‡‡‡‡ (10000-50000)

Same assay, conditions: [Imatinib] = 1 mM; fold improvement over parent MCYP-P1.2-B02

Molecule | FIOPC (B02)
B3 | ** (3.01-5.0)
B4 | * (0.0-3.0)
B5 | *** (5.01-10.0)
B6 | *** (5.01-10.0)

Same assay, conditions: [Imatinib] = 1 mM; fold improvement over parent MCYP-P1.2-B12

Molecule | FIOPC (B12)
B2 | *** (5.01-10.0)

Assay: Validation of generalist properties: oxidation of diclofenac by lyophilized P450-BM3 variant, UPLC-MS
Format: biochemical
Settings: [Diclofenac] = 1 mM
Procedure, shortened: as §1

Molecule | % Conv.
B1 | ++++ (15.01-20.00)
B2 | ++++ (15.01-20.00)
B3 | +++ (10.01-15.00)
B4 | ++++ (15.01-20.00)
B5 | ++++ (15.01-20.00)
B6 | ++++ (15.01-20.00)

Same assay, conditions: [Diclofenac] = 1 mM; TON = [substrate]*% conversion/[P450]

Molecule | TON
B1 | ‡‡‡‡ (10000-50000)
B2 | ‡‡‡‡ (10000-50000)
B3 | ‡‡‡ (5001-10000)
B4 | ‡‡‡ (5001-10000)
B5 | ‡‡‡‡ (10000-50000)
B6 | ‡‡‡‡ (10000-50000)

Same assay, conditions: [Diclofenac] = 1 mM; fold improvement over parent MCYP-P1.2-B02

Molecule | FIOPC (B02)
B3 | * (0.0-3.0)
B4 | * (0.0-3.0)

Same assay, conditions: [Diclofenac] = 1 mM; fold improvement over parent MCYP-P1.2-B12

Molecule | FIOPC (B12)
B2 | * (0.0-3.0)
B5 | * (0.0-3.0)
B6 | * (0.0-3.0)

Assay: Validation of generalist properties: oxidation of loratadine by lyophilized P450-BM3 variant, UPLC-MS
Format: biochemical
Settings: [Loratadine] = 1 mM
Procedure, shortened: as §1

Molecule | % Conv.
B1 | ++++ (15.01-20.00)
B2 | ++++ (15.01-20.00)
B3 | ++ (5.01-10.00)
B4 | +++ (10.01-15.00)
B5 | ++++ (15.01-20.00)
B6 | ++++ (15.01-20.00)

Same assay, conditions: [Loratadine] = 1 mM; TON = [substrate]*% conversion/[P450]

Molecule | TON
B1 | ‡‡‡‡ (10000-50000)
B2 | ‡‡‡‡ (10000-50000)
B3 | ‡‡ (1001-5000)
B4 | ‡‡‡ (5001-10000)
B5 | ‡‡‡‡ (10000-50000)
B6 | ‡‡‡‡ (10000-50000)

Same assay, conditions: [Loratadine] = 1 mM; fold improvement over parent MCYP-P1.2-B02

Molecule | FIOPC (B02)
B3 | * (0.0-3.0)
B4 | * (0.0-3.0)

Same assay, conditions: [Loratadine] = 1 mM; fold improvement over parent MCYP-P1.2-B12

Molecule | FIOPC (B12)
B2 | * (0.0-3.0)
B5 | * (0.0-3.0)
B6 | * (0.0-3.0)

Assay: Validation of generalist properties: oxidation of gefitinib by lyophilized P450-BM3 variant, UPLC-MS
Format: biochemical
Settings: [Gefitinib] = 1 mM
Procedure, shortened: as §1

Molecule | % Conv.
B1 | ++ (5.01-10.00)
B2 | ++++ (15.01-20.00)
B3 | ++ (5.01-10.00)
B4 | + (0-5.00)
B5 | ++++ (15.01-20.00)
B6 | ++++ (15.01-20.00)

Same assay, conditions: [Gefitinib] = 1 mM; TON = [substrate]*% conversion/[P450]

Molecule | TON
B1 | ‡‡ (1001-5000)
B2 | ‡‡‡‡ (10000-50000)
B3 | ‡‡ (1001-5000)
B4 | ‡ (0-1000)
B5 | ‡‡‡‡ (10000-50000)
B6 | ‡‡‡‡ (10000-50000)

Same assay, conditions: [Gefitinib] = 1 mM; fold improvement over parent MCYP-P1.2-B02

Molecule | FIOPC (B02)
B3 | **** (10.01-15.00)
B4 | * (0.0-3.0)

Same assay, conditions: [Gefitinib] = 1 mM; fold improvement over parent MCYP-P1.2-B12

Molecule | FIOPC (B12)
B2 | *** (5.01-10.0)
B5 | *** (5.01-10.0)
B6 | *** (5.01-10.0)
